Several values for one entry are separate records, joined by “and”; a condition that tells them apart may be missing. Identical values can stand only once.
How the values were obtained:
[1] = In vitro NicA2 activity in rat serum at physiologically relevant nicotine levels; format: biochemical; conditions: for % Reduction in nicotine levels in vitro: rat serum, 37° C.
Experimental: NicA2 was diluted in rat serum (controls: serum without NicA2) to give a final concentration of 400 nM, 200 nM, and 20 nM. Nicotine was diluted in 50 mM HEPES pH 7.5 to give final amounts of 640, […], 80, 40, 20, 10, 5 and 2.5 ng (spanning a nicotine concentration range of 3.2 μg/ml to 12.5 ng/ml). The diluted NicA2 in serum and diluted nicotine were mixed 1:1 after pre-equilibration at 37° C. and 5 min (in 200 μl total). After 4 minutes or 20 minutes, reactions were diluted and quenched by addition of 800 μl H2O+500 μl 2M NaOH/0.2M NH4OH. At the highest NicA2 concentration (400 nM) initial plasma nicotine levels of 25 and 50 ng/ml dropped to <2 ng/ml at 4 min. (Table A).

[2] = NicA2 stability assay in HEPES buffer at 37° C.; conditions: HEPES buffer pH=7.4
Experimental: Four μM nicotine and 40 nM NicA2 were prepared in HEPES buffer and stored at 37° C. Upon sitting for 0, 1, 3, 4, 5, 8, 12, 16, 20, or 25 days, 100 μL of each solution was extracted, mixed, incubated, quenched, analyzed as detailed, vide supra.
To test for these metrics, NicA2 was incubated at 37° C. in HEPES buffer and enzyme activity was examined at different time points.

[3] = NicA2 Michaelis-Menten assay (LC-MS); format: biochemical
Experimental: NicA2 activity was determined by LC-MS using Agilent 1260 Infinity liquid chromatography system with 6130 quadrupole mass spectrometry. 20 μl of each sample was injected to a Poroshell 120 EC-C8 column (4.6×50 mm, 2.7 μm, Agilent Technologies) subjected to a gradient (A to B where A=0.1% formic acid in water and B=0.1% formic acid in acetonitrile) of 0% B for 3 min, 0% B to 100% B from 3 to 7 min, and 100% B from 7 to 10 min at a constant flow rate of 0.5 ml/min. A column-solvent equilibration time of 3 min was conducted prior to next sample analysis. MS operational parameters were: API-ES mode, channel 1 (90%) positive single ion monitoring (SIM) of m/z 179 (30%), 161 (30%), 166 (30%) and 163 (10%), corresponding to the M+ peak of the reaction products, labeled internal standard and substrate respectively and channel 2 (10%) scan for positive ions; nitrogen as a nebulizing and drying gas (35 psi, 12 L/min), HV capillary voltage at 4 kV and the drying gas temperature to 300° C. To protect the detector from salts in the buffer, MS was turned on with a delay 1.4 min after injection.
Nicotine was solubilized in ddH2O to a concentration of 10 mM as stock and diluted with HEPES buffer (50 mM, pH=7.4) in the assay. Then 100 μL nicotine solution was mixed with 100 μL NicA2 solution to obtain final concentrations of 0.0625, 0.125, 0.25, 0.5, 1, 2 […] and 10 nM NicA2. After incubating at room temperature for 20 min, 20 μL nicotine methyl D-3 (2 μM in 20% TFA/H2O) solution was added to the mixture as an internal standard and to quench the reaction as well. The samples were injected into the LC-MS for analysis.
For standard curve generation, 0.03125, 0.0625, 0.125, 0.25, 0.5, 1, 2 μM nicotine and 0.4 μM NicA2 was tested and incubated for 2 h for complete oxidation of nicotine.
For the assay at 37° C., all the operations were undertaken in a warm room (37° C.) and solutions were pre-warmed to 37° C. Subsequently protocols were followed as described, vide supra.
Raw data was obtained with Agilent ChemStation, ions with m/z 179,161 (products), 166 (internal standard), 163 (nicotine) were extracted from MS channel 1 (SIM). The area of each peak was integrated and divided by internal standard (IS).
Data was further analyzed with Prism 6.0. For standard curves, the ratios of products to IS were plotted against concentrations of converted nicotine and fitted with linear regression. For experiment data, the ratios were fitted to the standard curves to obtain converted nicotine concentration, and then divided by reaction time (20 min) to get v0. These v0 were plotted against substrate nicotine concentrations using he Michaelis-Menten model to obtain Km and Vmax.
Upon reaction of nicotine with NicA2, three products were observed by LC-MS, one with m/z 179 (4) and two inseparable nicotine metabolites with m/z 161 (1 and 2, FIG. 2). Due to the limitation of instrument sensitivity and the dynamic equilibration of the products, direct quantification of the enzyme's efficiency was challenging. To compensate for these shortcomings, the product peaks 1, 2 and 4 were integrated in order to back-calculate the amount of nicotine consumed by NicA2. Standard curves were generated wherein nicotine was fully oxidized by NicA2 and the m/z 161/179 signals were plotted against a change in nicotine concentration, to provide a direct linear relationship (FIG. 3). The kinetic parameters of the enzyme were thus accurately determined.
To determine kinetic parameters of the enzyme, curves were generated at varying nicotine concentrations utilizing 10 nM NicA2 at room temperature. Samples were analyzed by LC-MS using nicotine (methyl-D3) as an internal standard. Target m/z values (161, 179 and 166) were extracted, integrated and fit to obtain the velocity, v0.

[4] = NicA2 degradation of nicotine in mouse serum; format: biochemical; conditions: 125, 250, 500 nM nicotine, 20 nM NicA2, mouse serum, 30 min
Experimental: FIGS. 5A-5D illustrate the stability of the NicA2 enzyme. FIG. 5A graphically illustrates the thermal stability of the NicA2 enzyme as a function of temperature. FIG. 5B illustrates the stability of NicA2 at 37° C. in HEPES buffer (pH=7.4) as a function of time. […] FIG. 5C illustrates the stability of NicA2 in mouse serum at 37° C. over time. FIG. 5D graphically illustrates the ability of NicA2 to degrade nicotine in mouse serum. Concentrations of 125, 250, 500 nM nicotine with and without enzyme (20 nM NicA2) were incubated in serum for 30 min. Residual nicotine remaining after this time period was measured.
As a means to test NicA2's efficiency “in vivo”, nicotine was doped with or without enzyme in serum (FIG. 5D). […] To further substantiate a conclusion that NicA2 can remove nicotine in vivo, NicA2's catabolism of nicotine was simulated based upon foregoing kinetic constants that were determined. NicA2 specificity constant is approximately 10^5 M^−1s^−1 and while clearly far from a perfect enzyme (10^8-10^9 M^−1s^−1).

B1: NicA2: flavin-containing nicotine-degrading enzyme of Pseudomonas putida S16, amino acid sequence SEQ ID NO:1 (protein)
chain: MSDKTKTNEGFSRRSFIGSAAVVTAGVAGLGAIDAASATQKTNRASTVKGGFDYDVVVVGGGFAGATAARECGLQGYRTLLLEARSRLGGRTFTSRFAGQEIEFGGAWVHWLQPHVWAEMQRYGLGVVEDPLTNLDKTLIMYNDGSVESISPDEFGKNIRIAFEKLCHDAWEVFPRPHEPMFTERARELDKSSVLDRIKTLGLSRLQQAQINSYMALYAGETTDKFGLPGVLKLFACGGWNYDAFMDTETHYRIQGGTIGLINAMLTDSGAEVRMSVPVTAVEQVNGGVKIKTDDDEIITAGVVVMTVPLNTYKHIGFTPALSKGKQRFIKEGQLSKGAKLYVHVKQNLGRVFAFADEQQPLNWVQTHDYSDELGTILSITIARKETIDVNDRDAVTREVQKMFPGVEVLGTAAYDWTADPFSLGAWAAYGVGQLSRLKDLQAAEGRILFAGAETSNGWHANIDGAVESGLRAGREVKQLLS
modifications: His tag
**Q.** For B1, which “% Reduction in nicotine levels in vitro” value ([1]; 20 nM NicA2, nicotine 25 ng/ml) is on record?
**A.** Its value is 17%.

**Q.** What about the “% Reduction in nicotine levels in vitro” value ([1]; 20 nM NicA2, nicotine 50 ng/ml) of the same molecule?
**A.** The value was 8%.

**Q.** And the “% Reduction in nicotine levels in vitro” value ([1]; 20 nM NicA2, nicotine 100 ng/ml)?
**A.** Its value is 4%.

**Q.** What about the “% Reduction in nicotine levels in vitro” value ([1]; 200 nM NicA2, nicotine 25 ng/ml) of the same molecule?
**A.** The value was 100%.

**Q.** And the “% Reduction in nicotine levels in vitro” value ([1]; 200 nM NicA2, nicotine 50 ng/ml)?
**A.** The value was 100%.

**Q.** What about the “% Reduction in nicotine levels in vitro” value ([1]; 200 nM NicA2, nicotine 100 ng/ml) of the same molecule?
**A.** The value was 72%.

**Q.** And the nicotine level remaining ([1]; 400 nM NicA2, initial nicotine 25 and 50 ng/ml, at 4 min)?
**A.** Its nicotine level remaining is less than 2 ng/mL.

**Q.** What about the “% Reduction in nicotine levels in vitro” value ([1]; 400 nM NicA2, nicotine 25 ng/ml) of the same molecule?
**A.** The value was 100%.

**Q.** And the “% Reduction in nicotine levels in vitro” value ([1]; 400 nM NicA2, nicotine 50 ng/ml)?
**A.** The value was 100%.

**Q.** And the “% Reduction in nicotine levels in vitro” value ([1]; 400 nM NicA2, nicotine 100 ng/ml)?
**A.** The value was 94%.

**Q.** What about the “stability and activity in HEPES buffer” value [2] of the same molecule?
**A.** Its value is no less than 3 weeks.

**Q.** What about the “v0 over the duration of the study” value [2] of the same molecule?
**A.** Its value is “remained virtually constant”.

**Q.** And the specificity constant [3]?
**A.** The specificity constant was “approximately 10^5 M^−1s^−1”.

**Q.** What about the Km ([3]; 37° C.) of the same molecule?
**A.** Its Km is 0.092 µM and 0.0919 µM.

**Q.** And the kcat ([3]; 37° C.)?
**A.** Its kcat is “(1.32±0.04)×10^−2 s^−1”.

**Q.** And the kcat ([3]; room temperature, m/z 161)?
**A.** The kcat was “(7.02 ± 0.23) × 10^−3 s^−1”.

**Q.** And the Km ([3]; room temperature, m/z 161, 10 nM NicA2)?
**A.** The Km was 0.0462 ± 0.0064 µM.

**Q.** And the kcat ([3]; room temperature, m/z 179)?
**A.** The kcat was “(6.64 ± 0.17) × 10^−3 s^−1”.

**Q.** And the Km ([3]; room temperature, m/z 179, 10 nM NicA2)?
**A.** Its Km is 0.043 µM and 0.0435 µM.

**Q.** What about the “nicotine consumed in serum” value [4] of the same molecule?
**A.** Its value is “consumed all nicotine”.

From US20190015484A1, “NICOTINE-DEGRADING ENZYMES FOR TREATING NICOTINE ADDICTION AND NICOTINE POISONING” (priority 2015, published 2019)
